Where two headings read alike, the source gives them in different places.
B1: ALK48 monoclonal antibody (antibody, IgG2a, V domains shown)
VH: QVQLQQSGAELVKPGASVKISCKASGYAFSSYWMNWVKQRPGKGLEWIGQIYPGDGDTTYNGKFKGKATLTADKSSSTVYMQLNSLTSEDSAVYFCVRYYYGSSGYFDYWGQGTTLTVSS
VL: DVQMIQTPDSLAVSLGQRATISCRASESVDNYGISFMHWYQQKPGQSPKLLIYRASNLESGIPARFSGSGSRTDFTLTINPVETDDVATYYCQQNNKDPPTFGGGTKLEIK
notes: Murine hybridoma antibody; also called ALK48B; ALK MAb 48
B2: ALK48: CAR construct, long format: SP-murine ALK48 scFv-CH2CH3 spacer; signaling domains not stated for the in vitro tests (antibody, V domains shown)
VH: QVQLQQSGAELVKPGASVKISCKASGYAFSSYWMNWVKQRPGKGLEWIGQIYPGDGDTTYNGKFKGKATLTADKSSSTVYMQLNSLTSEDSAVYFCVRYYYGSSGYFDYWGQGTTLTVSS
VL: DVQMIQTPDSLAVSLGQRATISCRASESVDNYGISFMHWYQQKPGQSPKLLIYRASNLESGIPARFSGSGSRTDFTLTINPVETDDVATYYCQQNNKDPPTFGGGTKLEIK
B3: ALK48B: anti-ALK monoclonal antibody, IgG2a; VH SEQ ID NO: 3, VL SEQ ID NO: 4 (antibody, V domains shown)
VH: QVQLQQSGAELVKPGASVKISCKASGYAFSSYWMNWVKQRPGKGLEWIGQIYPGDGDTTYNGKFKGKATLTADKSSSTVYMQLNSLTSEDSAVYFCVRYYYGSSGYFDYWGQGTTLTVSS
VL: DVQMIQTPDSLAVSLGQRATISCRASESVDNYGISFMHWYQQKPGQSPKLLIYRASNLESGIPARFSGSGSRTDFTLTINPVETDDVATYYCQQNNKDPPTFGGGTKLEIK
modifications: Antibody variable domain sequence
B4: ALK58 monoclonal antibody (antibody, V domains shown)
VH: ALQLQQSGAELVRPGASVTLSCKASGYTFTDYEMHWVKQTPVHGLEWIGAIDPETGGTAYNQKFEGKAILTADKSSSTAYMELRSLTSEDSPVYYCARRRYYGSSSFDYWGQGTTLTVSS
VL: DVQMIQTPSSLSASLGDRVTISCRASQDIGNYLNWYQQKPDGTVKLLIYYTSRLHSGVPSRFSGSGSGTEYSLTISNLEQEDIATYFCQQGSALPPTFGGGTKLEIN
notes: Murine hybridoma antibody; also called ALK58A; ALK MAb 58
B5: ALK58A: anti-ALK monoclonal antibody; VH SEQ ID NO: 7, VL SEQ ID NO: 8 (antibody, V domains shown)
VH: ALQLQQSGAELVRPGASVTLSCKASGYTFTDYEMHWVKQTPVHGLEWIGAIDPETGGTAYNQKFEGKAILTADKSSSTAYMELRSLTSEDSPVYYCARRRYYGSSSFDYWGQGTTLTVSS
VL: DVQMIQTPSSLSASLGDRVTISCRASQDIGNYLNWYQQKPDGTVKLLIYYTSRLHSGVPSRFSGSGSGTEYSLTISNLEQEDIATYFCQQGSALPPTFGGGTKLEIN
modifications: Antibody variable domain sequence
B6: ALK48SH-28z: CAR, SEQ ID NO: 50; murine ALK48 scFv, no spacer (short form), 28z (protein)
chain: LLVTSLLLCELPHPAFLLIPDTQVQLQQSGAELVKPGASVKISCKASGYAFSSYWMNWVKQRPGKGLEWIGQIYPGDGDTTYNGKFKGKATLTADKSSSTVYMQLNSLTSEDSAVYFCVRYYYGSSGYFDYWGQGTTLTVSSGGGGSGGGGSGGGGSDVQMIQTPDSLAVSLGQRATISCRASESVDNYGISFMHWYQQKPGQSPKLLIYRASNLESGIPARFSGSGSRTDFTLTINPVETDDVATYYCQQNNKDPPTFGGGTKLEIKRAAAIEVMYPPPYLDNEKSNGTIIHVKGKHLCPSPLFPGPSKPFWVLVVVGGVLACYSLLVTVAFIIFWVRSKRSRLLHSDYMNMTPRRPGPTRKHYQPYAPPRDFAAYRSRVKFSRSADAPAYQQGQNQLYNELNLGRREEYDVLDKRRGRDPEMGGKPRRKNPQEGLYNELQKDKMAEAYSEIGMKGERRRGKGHDGLYQGLSTATKDTYDALHMQALPPR
modifications: chimeric antigen receptor sequence
notes: murine ALK48 scFv, no spacer (short form), 28z
B7: ALK15A: anti-ALK monoclonal antibody, IgG2b; VH SEQ ID NO: 1, VL SEQ ID NO: 2 (antibody, V domains shown)
VH: DVKLQESGPGLVAPSQSLSITCTVSGFSLTSYAVSWVRQPPGKGLEWLGIIWSGGATNYNSALKSRLSISKDNSKSQVFLKMNGLQTDDTARYYCAREHYYGSSAMDYWGQGASITVSS
VL: GIVMTQSPLSLPVSLGDQASISCRSSQSIVHSYGNTYLFWYLQKPGQSPKLLIYRVSNRFSGVPDRFSGSGSGTNFTLKISRVEAEDMGVYYCFQGTHVPYTFGGGTKLEIK
modifications: Antibody variable domain sequence
B8: ALK53 monoclonal antibody (antibody, V domains shown)
VH: DVQLQESGPVLVKTGASVKMSCTASGYTFTDHFMDWVKQSHGKSLEWIGSLNPYSGGTSYNQKFKGKATLTVDKSSSTAYMELNSLTSVDSAVYYCARHNWGAYFDYWGQGTTLTVSS
VL: DIVMTQAAPSVPVTPGESVSISCRSSKSLLHSNGNTYLYWFLQRPGQSPQRLIYYMSNLASGVPDRFSGRGSGTDFTLRISRVEAEDVGVYYCMQGLEDPYTFGGGTKLEIK
notes: Murine hybridoma antibody; also called ALK53A; ALK MAb 53
B9: ALK53A: anti-ALK monoclonal antibody; VH SEQ ID NO: 5, VL SEQ ID NO: 6 (antibody, V domains shown)
VH: DVQLQESGPVLVKTGASVKMSCTASGYTFTDHFMDWVKQSHGKSLEWIGSLNPYSGGTSYNQKFKGKATLTVDKSSSTAYMELNSLTSVDSAVYYCARHNWGAYFDYWGQGTTLTVSS
VL: DIVMTQAAPSVPVTPGESVSISCRSSKSLLHSNGNTYLYWFLQRPGQSPQRLIYYMSNLASGVPDRFSGRGSGTDFTLRISRVEAEDVGVYYCMQGLEDPYTFGGGTKLEIK
modifications: Antibody variable domain sequence

Legend:
[1] = target: T1, human anaplastic lymphoma kinase (ALK) protein (human, UniProt Q9UM73 19-1620); experiment: flow cytometry on tumor cell lines expressing ALK
T1 construct: Endogenous ALK on tumor cell lines (SY5Y, LAN5, KCNR, IMR32, Rh18); also called CD246; cell surface ALK
Protocol: Cell lines used in these studies were: Sy5Y, LAN5, K562, Rh18, IMR32, KCNR. Cells were cultured in RPMI-1640 supplemented with 2 mM lgln, 10 mM HEPES, Pen/Strep, (Gibco, Life Technologies, Grand Island, N.Y.) and 10% FBS (Omega Scientific, Tarzana, Calif.). Anti-ALK antibodies were produced as described previously: ALK15A (IgG2b, weak agonist, membrane proximal binding), ALK48B (IgG2a, agonist, membrane proximal binding), ALK53A, ALK58A (binds to a membrane distal epitope) (Mazot et al., Oncogene, 30, 2017-2025, 2011; Moog-Lutz et al., J Biol. Chem., 280, 26039-26048, 2005). Staining for ALK expression on tumor lines was performed as follows: 2.5 μL primary antibody (1 mg/ml conc.) per 1 million cells was added to cells on ice in FACS buffer, FB, (PBS, 0.5% BSA, 0.02% NaN3) for 20 minutes, cells were washed twice, then stained with 5 μL FITC-F(ab′)2 Fragment Goat Anti-Mouse IgG+IgM (H+L) secondary antibody (Jackson ImmunoResearch, 1 mg/ml) for 20 minutes, washed, then analyzed by flow cytometry.
As reported previously, ALK MAbs 7, 48, 53, and 58 were able to detected ALK expression on tumor cell lines by flow cytometry. The ALK-specific MAb was used to define the expression of ALK on a series of neuroblastoma call lines, and a rhabdomyosarcoma cell line. FIG. 1 illustrates that the neuroblastoma cell lines SY5Y, LAN5, KCNR, IMR32, all express cell surface ALK, as does the rhabdomyosarcoma cell line Rh18. The differences in expression were quite varied with the SY5Y staining the brightest for ALK expression. This was true when the other MAbs specific for ALK were tested as well.

[2] = system: tumor cell lines (LAN5 SY5Y, Rh18, K562); experiment: Cytokine release on co-culture of CAR T cells with tumor cell lines; type: cell-based; conditions: 24-hour co-culture with tumor cell lines; FIG. 6
Protocol: FIGS. 6A-6C show a series of graphs illustrating cytokine activity of the disclosed CAR T Cells. PBMC were transduced with the indicated CAR constructs, and incubated with tumor targets (LAN5 SY5Y, Rh18, K562 as indicated in legend), and supernatants collected after 24 hours and tested for the presence of cytokine by a MesoScale mutli-analyte detection system. […] Controls include mock transduced cells, tumor only, and T cells without tumor target, as indicated.
T cell cytolytic function was assayed in standard 51Cr release assays as described elsewhere (Haso et al., (2013) Blood, 121, 1165-1174). Cytokine release was assayed by co-incubating 25,000 T cells with 25,000 tumor cell targets in cRPMI. At 24 hours culture media was collected and cytokines measured (Human TH1/TH2 multiplex, Meso Scale Discovery, Rockville, Md.).

ALK [3] = conditions: flow cytometry; as reported previously; cited from earlier work
Target sequence in this assay (Q9UM73 19-1038 limits assumed): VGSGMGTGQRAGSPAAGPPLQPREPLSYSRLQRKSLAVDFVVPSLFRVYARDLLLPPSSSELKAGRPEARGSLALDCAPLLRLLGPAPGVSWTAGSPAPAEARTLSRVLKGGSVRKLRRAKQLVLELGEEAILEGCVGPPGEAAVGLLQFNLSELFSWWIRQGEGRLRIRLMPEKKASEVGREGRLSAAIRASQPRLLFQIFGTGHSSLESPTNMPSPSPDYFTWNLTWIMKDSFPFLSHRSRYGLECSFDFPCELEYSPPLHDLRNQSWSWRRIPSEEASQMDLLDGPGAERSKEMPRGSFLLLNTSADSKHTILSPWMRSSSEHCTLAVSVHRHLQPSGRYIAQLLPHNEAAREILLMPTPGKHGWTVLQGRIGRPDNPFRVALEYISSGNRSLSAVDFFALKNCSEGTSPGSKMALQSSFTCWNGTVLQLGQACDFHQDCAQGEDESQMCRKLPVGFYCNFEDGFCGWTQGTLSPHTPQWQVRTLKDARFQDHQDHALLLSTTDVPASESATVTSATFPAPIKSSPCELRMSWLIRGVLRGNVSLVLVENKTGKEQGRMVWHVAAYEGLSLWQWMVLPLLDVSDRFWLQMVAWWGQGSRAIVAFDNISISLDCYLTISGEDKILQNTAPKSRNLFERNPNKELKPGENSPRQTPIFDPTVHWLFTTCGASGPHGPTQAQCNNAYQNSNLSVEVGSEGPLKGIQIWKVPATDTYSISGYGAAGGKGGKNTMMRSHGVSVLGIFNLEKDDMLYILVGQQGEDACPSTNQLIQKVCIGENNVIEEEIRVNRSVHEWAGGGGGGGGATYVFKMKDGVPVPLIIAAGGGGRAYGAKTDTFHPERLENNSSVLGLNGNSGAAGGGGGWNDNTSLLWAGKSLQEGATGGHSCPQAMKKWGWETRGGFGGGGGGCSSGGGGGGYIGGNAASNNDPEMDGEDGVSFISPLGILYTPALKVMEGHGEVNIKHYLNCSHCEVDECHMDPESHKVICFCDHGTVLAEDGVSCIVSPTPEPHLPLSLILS

ALK [4] = conditions: cited from earlier work
Target sequence in this assay (Q9UM73 19-1620): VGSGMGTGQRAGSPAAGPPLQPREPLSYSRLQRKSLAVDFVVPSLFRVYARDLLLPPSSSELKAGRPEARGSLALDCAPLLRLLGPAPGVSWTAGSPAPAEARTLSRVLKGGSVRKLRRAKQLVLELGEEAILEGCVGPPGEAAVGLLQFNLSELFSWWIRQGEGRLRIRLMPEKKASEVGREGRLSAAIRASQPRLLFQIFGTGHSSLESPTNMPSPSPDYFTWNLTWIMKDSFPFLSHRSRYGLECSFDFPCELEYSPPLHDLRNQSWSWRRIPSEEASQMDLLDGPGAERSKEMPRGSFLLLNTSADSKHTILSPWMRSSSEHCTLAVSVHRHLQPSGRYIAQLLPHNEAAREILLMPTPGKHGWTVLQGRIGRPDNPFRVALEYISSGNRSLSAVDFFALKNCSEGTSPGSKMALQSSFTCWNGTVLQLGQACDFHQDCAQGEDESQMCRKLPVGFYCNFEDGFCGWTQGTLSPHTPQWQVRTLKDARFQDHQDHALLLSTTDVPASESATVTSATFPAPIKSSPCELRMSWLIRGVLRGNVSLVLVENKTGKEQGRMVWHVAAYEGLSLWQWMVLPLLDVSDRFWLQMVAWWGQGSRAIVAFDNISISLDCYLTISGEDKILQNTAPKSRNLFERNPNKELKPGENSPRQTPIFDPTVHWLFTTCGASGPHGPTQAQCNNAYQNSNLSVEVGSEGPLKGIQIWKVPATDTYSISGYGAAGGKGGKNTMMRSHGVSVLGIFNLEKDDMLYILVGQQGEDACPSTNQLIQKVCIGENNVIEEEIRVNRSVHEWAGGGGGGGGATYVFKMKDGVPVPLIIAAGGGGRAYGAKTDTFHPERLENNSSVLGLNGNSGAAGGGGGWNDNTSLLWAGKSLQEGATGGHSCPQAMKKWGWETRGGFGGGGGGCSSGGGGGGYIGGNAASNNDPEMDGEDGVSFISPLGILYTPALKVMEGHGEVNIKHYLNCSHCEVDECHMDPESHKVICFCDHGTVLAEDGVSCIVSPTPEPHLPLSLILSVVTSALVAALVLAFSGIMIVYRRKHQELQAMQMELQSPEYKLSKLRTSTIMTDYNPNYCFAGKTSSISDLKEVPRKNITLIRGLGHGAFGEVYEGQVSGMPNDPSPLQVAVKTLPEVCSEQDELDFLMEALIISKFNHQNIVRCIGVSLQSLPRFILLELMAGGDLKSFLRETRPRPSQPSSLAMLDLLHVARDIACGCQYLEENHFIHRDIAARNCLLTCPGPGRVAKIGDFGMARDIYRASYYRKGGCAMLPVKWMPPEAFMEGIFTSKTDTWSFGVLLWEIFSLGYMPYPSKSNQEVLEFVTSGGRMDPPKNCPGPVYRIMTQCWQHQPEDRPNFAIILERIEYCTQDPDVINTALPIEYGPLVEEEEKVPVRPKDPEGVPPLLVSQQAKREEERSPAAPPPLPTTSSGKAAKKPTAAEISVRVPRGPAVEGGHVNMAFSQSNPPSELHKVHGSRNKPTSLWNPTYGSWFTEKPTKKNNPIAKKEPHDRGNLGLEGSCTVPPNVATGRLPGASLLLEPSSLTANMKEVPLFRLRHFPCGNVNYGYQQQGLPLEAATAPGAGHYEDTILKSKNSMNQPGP

[5] = target: T2, extracellular domain of ALK (Homo sapiens, UniProt Q9UM73); conditions: cited from earlier work
T2 construct: monoclonal antibodies (mAb) against the extracellular domain of ALK

[6] = system: ALK+ human neuroblastoma cells (SY5Y cells); experiment: SY5Y neuroblastoma xenograft assay; type: in vivo; conditions: transduced T cells given on day 13, no treatment on day 6
Protocol: NSG mice were injected s.c. on day 0 with 5×10^6 human neuroblastoma cells (SY5Y in vivo passaged and re-cultured as a new line, SY5Y.P1). On day 6, 5.1×10^6 ALK48-28z CAR(+)ve T cells were injected r.o. (34% positive/15 million total). CAR-treated mice were given a cocktail of (0.9 μg IL-7+6.6 μg M25 anti-IL7 mAb) i.p. every 2-3 days, for the time period indicated above. Survival statistics were calculated using Log-rank (Mantel-Cox) analysis (Prism Software, Inc.). On day 13, 3.2×10^6 ALK48SH-trasnduced T cells were given. The experiment was ended on day 64 due to graft vs host disease-like symptoms, standardly encountered in the NSG model system.
NOD scid gamma (NSG) mice were inoculated with ALK+ human neuroblastoma cells (SY5Y cells). On day 6, the mice were treated with human T cells transduced to express the murine ALK specific ALK48-28z CAR (SEQ ID NO: 49, long form CAR with CH2CH3 spacer domain) or mock treated T cells. […] In a separate set of mice, on day 13 post inoculation (and without any treatment on day 6), the mice were treated with ALK48SH-28z (SEQ ID NO: 50, short form CAR without spacer domain) transduced T cells.
The mice also received biweekly injections of IL-7 complexed to anti-IL7 antibody to promote T cell persistence. […] The other two groups all died of tumor.

T1 sequence (Q9UM73 19-1620 limits assumed): as the sequence (Q9UM73 19-1620) above
T2 sequence (Q9UM73 19-1038 limits assumed): as the sequence (Q9UM73 19-1038 limits assumed) above

Row | Molecule | binding result [1] | detection of ALK expression on tumor cell lines (ALK [3]) | agonist activity on ALK (ALK [4]) | location of epitope on ALK [5] | other results
1 | B1 | binds | – | – | – | –
2 | B2 | – | – | – | – | IFN-gamma production [2]: Strong; IL-2 production [2]: lower levels; TNF-alpha production [2]: lower levels
3 | B3 | – | able to detected ALK expression | agonist | membrane proximal binding | phosphorylation of the receptor upon binding (ALK [4]): induce phosphorylation; agonist activity on ALK (ALK [4]; listed as mAb 48): activating; form of ALK bound (220 kD / 140 kDa cleaved) [5]: both; location of epitope on ALK ([5]; listed as clone 48): closer to the cell surface membrane
4 | B4 | binds | – | – | – | –
5 | B5 | – | able to detected ALK expression | activating | membrane distal epitope | phosphorylation of the receptor upon binding (ALK [4]): induce phosphorylation; form of ALK bound (220 kD / 140 kDa cleaved) [5]: only the 220 KDa form; location of epitope on ALK ([5]; listed as clone 58): more distal cleaved region
6 | B6 | – | – | – | – | effect on survival [6]: no effect on survival
7 | B7 | – | – | weak agonist | membrane proximal binding | –
8 | B8 | binds | – | – | – | –
9 | B9 | – | able to detected ALK expression | – | – | –

From patent publication US20160280798A1, “ALK ANTIBODIES, CONJUGATES, AND CHIMERIC ANTIGEN RECEPTORS, AND THEIR USE” (The United States of America, as Represented by the …, priority 2013, published 2016)
